Reference: the RNAGym collection of RNA variant scans (doi:10.7554/elife.80360)

B1: HDV Ribozyme (parent)
chain: GGCCGGCAUGGUCCCAGCCUCCUCGCUGGCGCCGGCUGGGCAACAUUCCGAGGGGACCGUCCCCUCGGUAAUGGCGAAUGGGACCCA

Variants of: B1
Assay: self-cleavage, relative activity (ratio to wild type); higher = more cleavage; co-transcriptional

For GGCCGGCAUGGUCCCAGCCUGCUCGCUGGCGCCGGCUGGGCAACAUUCCGAGGGGACCGCCCCCUCGGUAAUGGCGAAUGGGACCCA, which self-cleavage is on record?
The self-cleavage was 0.0489.

Which self-cleavage does the source give for GGCCGGCAUGGUCCCAGCCUGCUCGCUGGCGCCGGCUGGGCAACAUUCCGAGGGGACCGUCCCCUCGGUAAUGGCGAAUCGGACCCA here?
The self-cleavage was 0.177.

With GGCCGGCAUGGUCCCAGCCUGCUCGCUGGCGCCGGCUGGGCAACAUUCCGAGGCGACCGUCCCCUCGGUAAUGGCGAAUGGGACCCA as the variant, how does the self-cleavage read?
Its self-cleavage is 0.0264.

For GGCCGGCAUGGUCCCAGCCUGCUCGCUGGCGCCGGCUGGGCAACAUUCCGAGGGAACCGUCCCCUCGGUAAUGGCGAAUGGGACCCA, which self-cleavage is on record?
The self-cleavage was 0.0941.

For GGCCGGCAUGGUCCCAGCCUGCUCGCUGGCGCCGGCUGGGCAACAUUCCGAGGGCACCGUCCCCUCGGUAAUGGCGAAUGGGACCCA, which self-cleavage is on record?
The self-cleavage was 0.135.

Which self-cleavage does the source give for GGCCGGCAUGGUCCCAGCCUGCUCGCUGGCGCCGGCUGGGCAACAUUCCGAGCGGACCGUCCCCUCGGUAAUGGCGAAUGGGACCCA here?
Its self-cleavage is 0.0978.

For GGCCGGCAUGGUCCCAGCCUUCUCGCUGACGCCGGCUGGGCAACAUUCCGAGGGGACCGUCCCCUCGGUAAUGGCGAAUGGGACCCA, which self-cleavage is on record?
The self-cleavage was 0.0683.

For GGCCGGCAUGGUCCCAGCCUUCUCGCUGCCGCCGGCUGGGCAACAUUCCGAGGGGACCGUCCCCUCGGUAAUGGCGAAUGGGACCCA, which self-cleavage is on record?
The self-cleavage was 0.0773.

Which self-cleavage does the source give for GGCCGGCAUGGUCCCAGCCUUUUCGCUGGCGCCGGCUGGGCAACAUUCCGAGGGGACCGUCCCCUCGGUAAUGGCGAAUGGGACCCA here?
The self-cleavage was 0.0702.

For GGCCGGCAUGGUCCCAGCCUUCUCGCUGGCGCCGGCUGGGCAACAUUCUGAGGGGACCGUCCCCUCGGUAAUGGCGAAUGGGACCCA, which self-cleavage is on record?
The self-cleavage was 0.245.

For GGCCGGCAUGGUCCCAGCCUUCUCGCUGGCGCCGGCUGGGCAACAUUCGGAGGGGACCGUCCCCUCGGUAAUGGCGAAUGGGACCCA, which self-cleavage is on record?
The self-cleavage was 0.102.

Which self-cleavage does the source give for GGCCGGCAUGGUCCCAGCCUUCUCGCUGGCGCCGGCUGGGCAACAUUCCGAGGGGACCGUCCCCUCGGUAAUGGCGUAUGGGACCCA here?
Its self-cleavage is 0.13.

Which self-cleavage does the source give for GGCCGGCAUGGUCCCAGCCUGCUCGCUGGCGCCCGCUGGGCAACAUUCCGAGGGGACCGUCCCCUCGGUAAUGGCGAAUGGGACCCA here?
The self-cleavage was 0.111.

With GGCCGGCAUGGUCCCAGCCUUCUCGCGGGCGCCGGCUGGGCAACAUUCCGAGGGGACCGUCCCCUCGGUAAUGGCGAAUGGGACCCA as the variant, how does the self-cleavage read?
The self-cleavage was 0.0755.

For GGCCGGCAUGGUCCCAGCCUUCUCGCUGGCGCCGGCUGGGCAACAUUCCGAGGGGACCGUCCCCUCGGUAAUGGCGAAUGGGACCAA, which self-cleavage is on record?
The self-cleavage was 0.505.

Which self-cleavage does the source give for GGCCGGCAUGGUCCCAGCCUUCUCGCUGGCGCCGGCUGGGCAACAUUCCGAGGGGACCGUCCCCUCGGUAAUGGCGAAUGGGACCGA here?
Its self-cleavage is 0.253.

Which self-cleavage does the source give for GGCCGGCAUGGUCCCAGCCUGCUCGCUGGCGCCGGCUGGGCAACAUUCCGAGGGGACCGUCCCCUCGGGAAUGGCGAAUGGGACCCA here?
Its self-cleavage is 0.

For GGCCGGCAUGGUCCCAGCCUUCUCGCUGGCGCCGGCUGGGCACCAUUCCGAGGGGACCGUCCCCUCGGUAAUGGCGAAUGGGACCCA, which self-cleavage is on record?
Its self-cleavage is 0.0545.

With GGCCGGCAUGGUCCCAGCCUUCUCGCUGGCGUCGGCUGGGCAACAUUCCGAGGGGACCGUCCCCUCGGUAAUGGCGAAUGGGACCCA as the variant, how does the self-cleavage read?
Its self-cleavage is 0.205.

Which self-cleavage does the source give for GGCCGGCAUGGUCCCAGCCUGCUCGCUGGCGCCGGCUGGGCAACAUUCCGAGGGGACCCUCCCCUCGGUAAUGGCGAAUGGGACCCA here?
Its self-cleavage is 0.106.

For GGCCGGCAUGGUCCCAGCCUUCUCGCUGGCGCCGGCUGGGCAACAUUCCGAGGGGACCGUCCCCUCGGUAAUGGCGAAUGGGACUCA, which self-cleavage is on record?
The self-cleavage was 0.511.

Which self-cleavage does the source give for GGCCGGCAUGGUCCCAGCCUGCUCGCUGGCGCCGGCAGGGCAACAUUCCGAGGGGACCGUCCCCUCGGUAAUGGCGAAUGGGACCCA here?
Its self-cleavage is 0.119.

With GGCCGGCAUGGUCCCAGCCUGCUCGCUGGCGCCGGCCGGGCAACAUUCCGAGGGGACCGUCCCCUCGGUAAUGGCGAAUGGGACCCA as the variant, how does the self-cleavage read?
Its self-cleavage is 0.0615.

Which self-cleavage does the source give for GGCCGGCAUGGUCCCAGCCUUCUCGCUGGCGCCGGCUGGGCAACAUUCCGAGGGGACCGUACCCUCGGUAAUGGCGAAUGGGACCCA here?
The self-cleavage was 0.176.

Which self-cleavage does the source give for GGCCGGCAUGGUCCCAGCCUUCUCGCUGGCGCCGGCUGGGCAACAUUCCGAGGGGACCGUCCCCUCGGUAGUGGCGAAUGGGACCCA here?
Its self-cleavage is 0.243.

For GGCCGGCAUGGUCCCAGCCUUCUCGCUCGCGCCGGCUGGGCAACAUUCCGAGGGGACCGUCCCCUCGGUAAUGGCGAAUGGGACCCA, which self-cleavage is on record?
Its self-cleavage is 0.0449.

For GGCCGGCAUGGUCCCAGCCUGCUCGCUGGCGCCGGCUGGGCAACACUCCGAGGGGACCGUCCCCUCGGUAAUGGCGAAUGGGACCCA, which self-cleavage is on record?
Its self-cleavage is 0.104.

Which self-cleavage does the source give for GGCCGGCAUGGUCCCAGCCUUCUCGCUGGCGCCGGCUGGGCAACAUUCCGAGGGGACGGUCCCCUCGGUAAUGGCGAAUGGGACCCA here?
The self-cleavage was 0.227.

Which self-cleavage does the source give for GGCCGGCAUGGUCCCAGCCUUCUCGCUGGCGCAGGCUGGGCAACAUUCCGAGGGGACCGUCCCCUCGGUAAUGGCGAAUGGGACCCA here?
Its self-cleavage is 0.

For GGCCGGCAUGGUCCCAGCCUUCUCGCUGGCGCUGGCUGGGCAACAUUCCGAGGGGACCGUCCCCUCGGUAAUGGCGAAUGGGACCCA, which self-cleavage is on record?
The self-cleavage was 0.147.

For GGCCGGCAUGGUCCCAGCCUUCUCGCUGGCGCGGGCUGGGCAACAUUCCGAGGGGACCGUCCCCUCGGUAAUGGCGAAUGGGACCCA, which self-cleavage is on record?
Its self-cleavage is 0.104.

With GGCCGGCAUGGUCCCAGCCUGCUCGCUGGCGCCGGCUGGGCAACAUUCCGAGGGGACCGUCCCCUCGGUAACGGCGAAUGGGACCCA as the variant, how does the self-cleavage read?
The self-cleavage was 0.0426.
